Measurements: PMC12575849

What was measured:
[1] = tested on: CHD1 WT (human); experiment: EMSA; details: 5 mM Mg2+, no ATP listed; 10 mM HEPES pH 8.0, 75 mM NaCl, 5 mM MgCl2, 10% glycerol, 1 mM DTT, 0.1 mg/ml BSA; 5 nM nucleosome; 30 min at 30 C; native PAGE
[2] = tested on: CHD1 deltaNC (human); experiment: EMSA; details: 5 mM Mg2+, no ATP listed; 10 mM HEPES pH 8.0, 75 mM NaCl, 5 mM MgCl2, 10% glycerol, 1 mM DTT, 0.1 mg/ml BSA; 5 nM nucleosome; 30 min at 30 C; native PAGE
[3] = target: unmodified nucleosome (recombinant human histone octamer on Widom 601 DNA) (human) (UniProt P04908); experiment: native gel or EMSA; purified CHD1 titrated against 5 nM IR dye-conjugated nucleosome in EMSA buffer (10 mM HEPES pH 8.0, 75 mM NaCl, 5 mM MgCl2, 10% glycerol, 1 mM DTT, 0.1 mg/ml BSA), 30 min at 30 °C, native PAGE; shifted fraction fitted to a dose-response curve

Chain of recombinant CHD1^WT protein (O14646 whole entry): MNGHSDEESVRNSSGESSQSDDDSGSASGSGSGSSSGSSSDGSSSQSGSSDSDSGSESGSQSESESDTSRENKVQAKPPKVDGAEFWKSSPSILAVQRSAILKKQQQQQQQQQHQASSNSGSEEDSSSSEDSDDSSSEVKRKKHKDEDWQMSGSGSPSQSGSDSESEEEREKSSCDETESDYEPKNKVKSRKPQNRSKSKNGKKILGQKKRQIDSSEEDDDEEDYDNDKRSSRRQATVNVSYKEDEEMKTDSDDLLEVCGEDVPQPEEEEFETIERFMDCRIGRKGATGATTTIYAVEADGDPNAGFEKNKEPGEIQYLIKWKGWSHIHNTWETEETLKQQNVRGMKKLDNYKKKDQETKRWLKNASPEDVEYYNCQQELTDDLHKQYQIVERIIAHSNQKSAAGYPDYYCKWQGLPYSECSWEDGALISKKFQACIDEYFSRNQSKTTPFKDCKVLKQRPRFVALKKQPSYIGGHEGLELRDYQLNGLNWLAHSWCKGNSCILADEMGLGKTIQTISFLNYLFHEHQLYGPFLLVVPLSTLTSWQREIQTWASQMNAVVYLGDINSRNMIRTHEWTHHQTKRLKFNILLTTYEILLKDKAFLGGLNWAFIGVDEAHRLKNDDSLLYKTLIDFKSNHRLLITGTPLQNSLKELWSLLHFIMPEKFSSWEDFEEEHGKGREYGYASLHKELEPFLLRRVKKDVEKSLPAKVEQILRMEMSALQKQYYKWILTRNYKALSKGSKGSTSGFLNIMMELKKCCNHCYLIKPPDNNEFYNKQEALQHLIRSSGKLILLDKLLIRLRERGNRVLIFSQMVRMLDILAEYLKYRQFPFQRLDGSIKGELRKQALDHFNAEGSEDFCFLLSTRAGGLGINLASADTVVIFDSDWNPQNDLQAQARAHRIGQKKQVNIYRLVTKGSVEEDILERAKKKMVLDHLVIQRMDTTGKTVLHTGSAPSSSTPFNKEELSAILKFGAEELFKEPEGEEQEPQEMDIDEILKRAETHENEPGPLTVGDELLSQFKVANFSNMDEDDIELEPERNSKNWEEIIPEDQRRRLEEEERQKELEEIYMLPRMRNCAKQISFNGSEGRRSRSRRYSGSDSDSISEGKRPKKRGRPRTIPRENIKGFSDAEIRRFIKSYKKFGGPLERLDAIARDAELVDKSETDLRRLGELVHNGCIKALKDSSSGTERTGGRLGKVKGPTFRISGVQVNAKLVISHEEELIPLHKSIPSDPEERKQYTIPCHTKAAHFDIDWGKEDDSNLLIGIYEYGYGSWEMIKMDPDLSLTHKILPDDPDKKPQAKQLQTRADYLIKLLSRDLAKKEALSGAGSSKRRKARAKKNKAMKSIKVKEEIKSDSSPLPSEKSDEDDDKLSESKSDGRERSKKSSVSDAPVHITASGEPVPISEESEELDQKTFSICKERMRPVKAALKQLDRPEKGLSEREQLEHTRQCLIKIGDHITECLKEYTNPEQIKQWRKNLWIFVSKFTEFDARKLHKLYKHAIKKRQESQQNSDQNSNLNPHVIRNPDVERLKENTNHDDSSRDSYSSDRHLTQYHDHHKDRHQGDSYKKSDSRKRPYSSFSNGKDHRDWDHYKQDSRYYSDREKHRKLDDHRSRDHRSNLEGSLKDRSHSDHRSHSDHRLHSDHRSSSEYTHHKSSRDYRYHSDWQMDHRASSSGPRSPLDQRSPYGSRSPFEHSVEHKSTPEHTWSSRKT

With Widom 601 nucleosome (unmodified) the Kd [1] was 221 nM and the Kd [2] was 6.3 nM.
For “recombinant CHD1^WT protein (from UniProt O14646 1-1710) (natural protein)”, the Kd [3] was 221 nM.
